Source: US5831007, “Human receptor for interleukin-12” (Hoffmann-La Roche Inc., dated 1998)

How the values were obtained:
[1] = target: T1, Recombinant human low affinity IL-12 receptor protein (clone No. 5) expressed in COS cells (human); assay: steady state binding of 125I-IL-12 to rIL-12R expressing COS cells, Scatchard (FIGS. 4A and 4B)
Description: The characteristics of the protein bound by mAb 2-4E6 fulfilled standard criterion for an IL-12R and therefore 2-4E6 was used in an expression cloning strategy to isolate a cDNA coding for the human IL-12R. A cDNA coding for the human IL-12R was isolated by this method (U. Gubler and A. O. Chua, unpublished observations). The IL-12R cDNA was engineered in a mammalian cell expression vector, transfected into COS-7 cells and the specificity for binding of ^125I-IL-12 and ^125I-2-4E6 was determined. […] This low affinity IL-12 binding site corresponds to the low affinity site seen in the binding assays with human cells that naturally express IL-12R. The binding of ^125I-2-4E6 to, rIL-12R expressed in the COS cells is saturable and specific and identifies approximately 500,000 sites/cell (FIGS. 4C and 4D).
For FIGS. 4A and 4B, COS cells were transfected with a plasmid expressing human rIL-12R as. described. Three days later, transfected cells (1×10^4 cells) were incubated for 2 hrs at room temperature with increasing concentration of ^125I-IL-12 in the absence (o) or presence (□) of 50 nM unlabeled IL-12. Total (o) and non-specific (□) cell bound radioactivity were determined as described. Specific binding of ^125I-IL-12 (▲) was calculated by subtracting non-specific binding from total binding.

[2] = target: T1, Recombinant human low affinity IL-12 …; assay: equilibrium binding of labeled IL-12 to COS cells electroporated with clone number 5, Scatchard, single site (FIG. 19A)
Description: (§1) Binding assays with labeled IL-12 or labeled 2-4E6 antibody were run as described hereinabove under anti human IL-12 receptor antibody. The binding data were analyzed and Kd values were calculated according to Scatchard, using the LIGAND program discussed hereinabove under anti human IL-12 receptor antibody. In vivo labeling (6 hours) of COS cells (3 ×10^5 cells per 35 mm diameter tissue culture dish) with […] was performed 3 days after transfection as described (Molecular Cloning Manual). Cells were washed in PBS and lysed in CHAPS lysis buffer (10 mM CHAPS-300 mM Nacl-50 mM Tris-HCl pH 7.4-2 mg/ml lodoacetamide-0.17 mg/ml PMSF), precleared by incubation with protein G Sepharose beads (50 µl packed beads per ml, Genex) and normal mouse serum (25% final concentration) at 4° C. overnight. […]
(§2) IL-12 receptor cDNA (clone number 5) (SEQ ID NO:1) was electroporated into COS cells and equilibrium binding of labeled human and murine IL-12 to the cells was performed and analyzed as described (R. Chizzonite, et al., 1992, J. Immunol., 148:3117). […] After transformation by the method of Scatchard, the equilibrium binding data was best described by a single receptor site model as determined by the LIGAND program. The site numbers indicated in FIG. 19 are calculated assuming that all cells are expressing receptors. […]

[3] = target: Human IL-12 receptor subunit monomer (on murine CTLL transfectants, which only express monomers); monomer form … (human); assay: IL-12 binding to murine CTLL transfectants stably expressing the IL-12 receptor subunit (monomers only)
[4] = target: T1, Recombinant human low affinity IL-12 …; assay: IL-12 binding to intact transfected COS cells; told in the discussion
[5] = target: T1, Recombinant human low affinity IL-12 …; assay: IL-12 binding to transfected COS cells; told in the discussion
[6] = target: T1, Recombinant human low affinity IL-12 …; assay: equilibrium binding of labeled IL-12 to COS cells electroporated with clone number 5, Scatchard, single site (FIG. 19B)
Description: as §1, §2

| Kd [1] [nM] | Kd [2] [nM] | Kd [3] [nM] | Kd [4] [nM] | Kd [5] [nM] | Kd [6] [nM] | Binder |
| --- | --- | --- | --- | --- | --- | --- |
| 2 to 6 | 3.4 | ≥ 50 | 2 to 5 | ~3 |  | Recombinant human IL-12 (Interleukin-12) (ligand) chain 1: IWELKKDVYVVELDWYPDAPGEMVVLTCDTPEEDGITWTLDQSSEVLGSGKTLTIQVKEFGDAGQYTCHKGGEVLSHSLLLLHKKEDGIWSTDILKDQKEPKNKTFLRCEAKNYSGRFTCWWLTTISTDLTFSVKSSRGSSDPQGVTCGAATLSAERVRGDNKEYEYSVECQEDSACPAAEESLPIEVMVDAVHKLKYENYTSSFFIRDIIKPDPPKNLQLKPLKNSRQVEVSWEYPDTWSTPHSYFSLTFCVQVQGKSKREKKDRVFTDKTSATVICRKNASISVRAQDRYYSSSWSEWASVPCS chain 2: RNLPVATPDPGMFPCLHHSQNLLRAVSNMLQKARQTLEFYPCTSEEIDHEDITKDKTSTVEACLPLELTKNESCLNSRETSFITNGSCLASRKTSFMMALCLSSIYEDLKMYQVEFKTMNAKLLMDPKRQIFLDQNMLAVIDELMQALNFNSETVPQKSSLEEPDFYKTKIKLCILLHAFRIRAVTIDRVMSYLNAS |
|  |  |  |  |  | 2.1 | Recombinant murine IL-12 (ligand) chain 1: MWELEKDVYVVEVDWTPDAPGETVNLTCDTPEEDDITWTSDQRHGVIGSGKTLTITVKEFLDAGQYTCHKGGETLSHSHLLLHKKENGIWSTEILKNFKNKTFLKCEAPNYSGRFTCSWLVQRNMDLKFNIKSSSSSPDSRAVTCGMASLSAEKVTLDQRDYEKYSVSCQEDVTCPTAEETLPIELALEARQQNKYENYSTSFFIRDIIKPDPPKNLQMKPLKNSQVEVSWEYPDSWSTPHSYFSLKFFVRIQRKKEKMKETEEGCNQKGAFLVEKTSTEVQCKGGNVCVQAQDRYYNSSCSKWACVPCRVRS chain 2: RVIPVSGPARCLSQSRNLLKTTDDMVKTAREKLKHYSCTAEDIDHEDITRDQTSTLKTCLPLELHKNESCLATRETSSTTRGSCLPPQKTSLMMTLCLGSIYEDLKMYQTEFQAINAALQNHNHQQIILDKGMLVAIDELMQSLNHNGETLRQKPPVGEADPYRVKMKLCILLHAFSTRVVTINRVMGYLSSA |
